Measured values reported in patent publication US20250011420A1 (MEDICOVESTOR, published 2025).

Target: T1, recombinant 6His-Sp17 protein (UniProt Q15506 1-151)
T1 sequence: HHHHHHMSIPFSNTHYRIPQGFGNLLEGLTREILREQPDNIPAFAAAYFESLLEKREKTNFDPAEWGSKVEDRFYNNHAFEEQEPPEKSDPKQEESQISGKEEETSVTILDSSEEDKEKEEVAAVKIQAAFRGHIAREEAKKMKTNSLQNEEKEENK
Test: SPR (Biacore T200), 6His-Sp17 at 6.25-300 nM
From the text: The lines correspond, from highest to lowest, to fitted cycles for 300 nanomolar, 100 nanomolar, 50 nanomolar, 25 nanomolar, 12.5 nanomolar, and 6.25 nanomolar concentrations of 6His-Sp17.
The nucleotide sequences encoding the VH and VL regions of Example 1 were cloned into a mouse IgG2a heavy chain gene and a mouse kappa light chain gene, respectively, and expressed in CHO—S cells to produce a mouse-human chimeric antibody, which was named chAB2. Successful generation of the antibody was confirmed by SDS-PAGE and western blotting using anti-mouse heavy and light chain antibodies and recombinant Sp17 protein (FIGS. 2 & 3). The chAB2 antibody was reactive to mouse surface Sp17 protein expressed on the mouse ovarian cancer cell line ID8 (FIG. 4).

B1: mouse-human chimeric anti-Sp17 IgG2a/kappa monoclonal antibody chAB2 (antibody, V domains shown)
VH: QVQLQQSGAEVKKPGSSVKVSCKASGGTFSSYAISWVRQAPGQGLEWMGRIIPILGIANYAQKFQGRVTITADKSTSTAYMELSSLRSEDTAVYYCARPSEEVVAAYGAFDIWGQGTTVTVSS
VL: EIVLTQSPLSLPVRPGEPASISCRASQSLLRSDGFNYLDWYLQKPGQSPQLLVYLGSNRASGVPDRFSGSGSGTDFTLKISRVEAEDVGVYYCMQAVQTPYIFGQGTKLEIK
notes: also called chimeric antibody; anti-Sp17 antibody chAB2
- Kd: 2.07 nM
- koff: 0.00013 s⁻¹
- kon: 62600 M⁻¹ s⁻¹
